# Measured values taken from US8080523.
# Read-outs that look alike come from different tables or passages of the source.
# T1: Kv1.3 (cloned) (Mus musculus (Mouse)), P16390
# T1 chain: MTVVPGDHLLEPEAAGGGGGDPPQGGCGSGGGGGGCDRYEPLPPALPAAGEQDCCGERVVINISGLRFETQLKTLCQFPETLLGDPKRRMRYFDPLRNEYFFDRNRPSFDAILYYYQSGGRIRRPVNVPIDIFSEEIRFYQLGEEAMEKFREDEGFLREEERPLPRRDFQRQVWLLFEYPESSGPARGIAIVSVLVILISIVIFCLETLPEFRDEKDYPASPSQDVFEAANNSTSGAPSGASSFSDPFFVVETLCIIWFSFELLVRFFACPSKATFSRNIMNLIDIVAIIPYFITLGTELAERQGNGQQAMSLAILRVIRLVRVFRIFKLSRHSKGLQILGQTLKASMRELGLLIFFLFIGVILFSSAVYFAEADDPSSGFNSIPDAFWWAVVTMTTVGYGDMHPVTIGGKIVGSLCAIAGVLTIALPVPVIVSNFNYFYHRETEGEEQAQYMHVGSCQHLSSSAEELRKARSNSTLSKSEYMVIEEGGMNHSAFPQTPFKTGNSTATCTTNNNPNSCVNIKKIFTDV
# T2: Kv1.1 (Mus musculus (Mouse)), P16388
# T2 chain: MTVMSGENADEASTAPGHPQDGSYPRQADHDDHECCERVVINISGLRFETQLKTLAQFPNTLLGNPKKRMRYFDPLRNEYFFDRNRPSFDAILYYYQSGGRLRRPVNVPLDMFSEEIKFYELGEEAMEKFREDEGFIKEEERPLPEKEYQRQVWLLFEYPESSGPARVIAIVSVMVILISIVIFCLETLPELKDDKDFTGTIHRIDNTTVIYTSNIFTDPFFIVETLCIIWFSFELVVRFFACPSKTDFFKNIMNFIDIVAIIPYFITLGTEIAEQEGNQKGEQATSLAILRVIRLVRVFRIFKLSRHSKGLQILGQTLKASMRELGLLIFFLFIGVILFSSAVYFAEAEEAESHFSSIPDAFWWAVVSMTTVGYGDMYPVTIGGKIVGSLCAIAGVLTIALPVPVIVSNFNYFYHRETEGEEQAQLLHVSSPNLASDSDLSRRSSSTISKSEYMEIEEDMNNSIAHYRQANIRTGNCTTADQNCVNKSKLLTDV
# Key:
# [1] = target: T1, Kv1.3 (cloned) (Mus musculus (Mouse)), …
# [2] = target: T2, Kv1.1 (Mus musculus (Mouse)), P16388; test: patch-clamp, ratio of Kd values; reference margatoxin on Kv1.3
# [3] = target: T2, Kv1.1 (Mus musculus (Mouse)), P16388; test: patch-clamp, block of channel current
# [4] = target: T1, Kv1.3 (cloned) (Mus musculus (Mouse)), …; test: patch-clamp, block of channel current
Binder,Kd [1] [nM],fold selectivity for Kv1.3 over this channel [2] [fold],Kd [3] [nM],Kd [4] [nM]
RSCIDTIPKSRCTAFQCKHSMKYRLSFCRKTCGTC (modifications not checked) [ShK toxin],0.01,–,–,–
"TIINVKCTSPKQCLPPCKAQFGQSAGAKCMNGKCKCYPH (modifications not checked) [Margatoxin, P40755 1-39]",–,9,10,0.11
